Where no end group is shown, it is not given here. [ ]: non-standard residue; d: D form. Cit = NC(=O)NCCC[C@H](N)C(=O)O

Assay [1] has as its target T1, Arginine containing control peptide of Histone H2A N-terminus (SEQ ID NO: 3), SGRGKQGGKARA (free N-terminal NH2 group).
T1 construct: Control peptide with arginine in place of citrulline
T1 peptide: SGRGKQGGKARA
Briefly: peptide ELISA.

Assay [2] addresses T2, N-terminal citrullinated peptide of Histone H2A (SEQ ID NO: 1), SGCitGKQGGKARA (also: biotin, place not given here).
T2 peptide: SG[Cit]GKQGGKARA
The experiment in a line: peptide ELISA, biotin peptide on neutravidin. How it is done: Optical density was measured by 450 nm and is a measure for the affinity of the antibodies used.
(In general: An ELISA detects its analyte on a solid surface through an enzyme-linked reagent.)

B1: Mouse monoclonal antibody Rmmab22.101 (antibody, V domains shown)
VH: RIQLVQSGPELKKPGEAVKISCKASGYTFTNYGMHWMKQTPGKDFRWMGWINTYSGEATYVDDFKGRFAFSLGTSASTAYLQINNLKNDDTATYFCLRGYTYQSFDEGGDYWGQGTALTVSS
VL: not shown
notes: Mouse monoclonal from hybridoma DSMZ ACC 3031; also called MQ22.101
Turning to B1, the binding result in assay [1] is listed as “no binding”; in assay [2], “binds”.

Values taken from patent US20220073596A1 (CITRYLL B V, published 2022).
